Data: patent US7867500B2, “Cofactor that modulates steroid receptor activities” (The United States of America as represented by the …, priority 2004, dated 2011)

T1: SRC-1 (1139C) (Homo sapiens, UniProt Q15788)
T1 construct: expressed in transfected cells; host or cells: CV-1
T1 sequence (Q15788 1139-1441 limits assumed): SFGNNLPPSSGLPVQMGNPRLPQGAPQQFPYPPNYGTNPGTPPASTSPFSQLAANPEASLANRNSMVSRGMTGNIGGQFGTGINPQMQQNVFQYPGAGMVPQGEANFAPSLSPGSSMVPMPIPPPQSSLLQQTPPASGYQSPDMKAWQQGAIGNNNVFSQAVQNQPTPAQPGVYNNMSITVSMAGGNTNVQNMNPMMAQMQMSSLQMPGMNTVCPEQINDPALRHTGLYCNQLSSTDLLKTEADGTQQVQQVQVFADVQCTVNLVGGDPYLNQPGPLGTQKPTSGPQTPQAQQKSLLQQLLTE
T1 sequence (Q6EMB2 627-838 partner limits assumed): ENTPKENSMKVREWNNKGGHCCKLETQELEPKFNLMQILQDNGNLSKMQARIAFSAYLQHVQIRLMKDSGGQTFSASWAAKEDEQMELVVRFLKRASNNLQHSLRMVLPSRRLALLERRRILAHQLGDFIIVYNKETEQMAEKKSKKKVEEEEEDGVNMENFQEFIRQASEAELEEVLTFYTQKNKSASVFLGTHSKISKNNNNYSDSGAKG

T2: TIF2(1140C) (Homo sapiens, UniProt Q15596)
T2 construct: the PCR product of TIF2 with the TIF2-1140F and TIF2-1464R primers; expressed in transfected cells; host or cells: CV-1
T2 sequence (Q15596 1140-1464): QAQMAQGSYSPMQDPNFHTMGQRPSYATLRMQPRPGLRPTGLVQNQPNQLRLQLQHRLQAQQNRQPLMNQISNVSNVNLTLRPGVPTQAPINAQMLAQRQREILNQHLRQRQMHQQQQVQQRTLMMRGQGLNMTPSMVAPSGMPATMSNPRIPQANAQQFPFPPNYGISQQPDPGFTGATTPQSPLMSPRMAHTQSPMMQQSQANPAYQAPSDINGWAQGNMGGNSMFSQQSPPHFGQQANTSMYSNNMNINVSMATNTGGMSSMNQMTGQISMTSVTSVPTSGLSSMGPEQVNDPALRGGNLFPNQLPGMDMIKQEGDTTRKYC

B1: 6-6CL1: STAMP fragment amino acids 623-834, coactivator interaction domain (CID) (protein)
chain: ENTPKENSMKVREWNNKGGHCCKLETQELEPKFNLMQILQDNGNLSKMQARIAFSAYLQHVQIRLMKDSGGQTFSASWAAKEDEQMELVVRFLKRASNNLQHSLRMVLPSRRLALLERRRILAHQLGDFIIVYNKETEQMAEKKSKKKVEEEEEDGVNMENFQEFIRQASEAELEEVLTFYTQKNKSASVFLGTHSKISKNNNNYSDSGAKG
B2: STAMP: SRC-1 and TIF2 Associated Modulatory Protein, 1277 amino acid human polypeptide, expressed from transfected plasmid (protein)
chain: MARDLEETASSSEDEEVISQEDHPCIMWTGGCRRIPVLVFHADAILTKDNNIRVIGERYHLSYKIVRTDSRLVRSILTAHGFHEVHPSSTDYNLMWTGSHLKPFLLRTLSEAQKVNHFPRSYELTRKDRLYKNIIRMQHTHGFKVFHILPQTFLLPAEYAEFCNSYSKDRGPWIVKPVASSRGRGVYLINNPNQISLEENILVSRYINNPLLIDDFKFDVRLYVLVTSYDPLVIYLYEEGLARFATVRYDQGAKNIRNQFMHLTNYSVNKKSGDYVSCDDPEVEDYGNKWSMSAMLRYLKQEGRDTTALMAHVEDLIIKTIISAELAIATACKTFVPHRSSCFELYGFDVLIDSTLKPWLLEVNLSPSLACDAPLDLKIKASMISDMFTVVGFVCQDPAQRASTRPIYPTFESSRRNPFQKPQRCRPLSASDAEMKNLVGSAREKGPGKLGGSVLGLSMEEIKVLRRVKEENDRRGGFIRIFPTSETWEIYGSYLEHKTSMNYMLATRLFQDRMTADGAPELKIESLNSKAKLHAALYERKLLSLEVRKRRRRSSRLRAMRPKYPVITQPAEMNVKTETESEEEEEVALDNEDEEQEASQEESAGFLRENQAKYTPSLTALVENTPKENSMKVREWNNKGGHCCKLETQELEPKFNLMQILQDNGNLSKMQARIAFSAYLQHVQIRLMKDSGGQTFSASWAAKEDEQMELVVRFLKRASNNLQHSLRMVLPSRRLALLERRRILAHQLGDFIIVYNKETEQMAEKKSKKKVEEEEEDGVNMENFQEFIRQASEAELEEVLTFYTQKNKSASVFLGTHSKISKNNNNYSDSGAKGDHPETIMEEVKIKPPKQQQTTEIHSDKLSRFTTSAEKEAKLVYSNSSSGPTATLQKIPNTHLSSVTTSDLSPGPCHHSSLSQIPSAIPSMPHQPTILLNTVSASASPCLHPGAQNIPSPTGLPRCRSGSHTIGPFSSFQSAAHIYSQKLSRPSSAKAGSCYLNKHHSGIAKTQKEGEDASLYSKRYNQSMVTAELQRLAEKQAARQYSPSSHINLLTQQVTNLNLATGIINRSSASAPPTLRPIISPSGPTWSTQSDPQAPENHSSSPGSRSLQTGGFAWEGEVENNVYSQATGVVPQHKYHPTAGSYQLQFALQQLEQQKLQSRQLLDQSRARHQAIFGSQTLPNSNLWTMNNGAGCRISSATASGQKPTTLPQKVVPPPSSCASLVPKPPPNHEQVLRRATSQKASKGSSAEGQLNGLQSSLNPAASVPITSSTDPAHTKI

Tests used:
Assay type in all cases: cell-based
SRC-1 (1139C) = target: T1, SRC-1 (1139C); experiment: Mammalian two-hybrid assay in CV-1 cells with SRC-1 C-terminal fragment
Text: (§1) FIG. 2A-2C illustrate the isolation and characterization of the partial clone of the protein that binds to TIF2.4. […] Five clones were obtained but only two (clones I and V) contained a protein that was needed for colony growth in the presence of the pSos/TIF2.4 fusion protein. After initial screening, only clone I (also named 6-6CL1) was selected for further investigation. FIG. 2B and FIG. 2C illustrate the selectivity of 6-6CL1 interactions with TIF2.4 in mammalian two-hybrid assays. Triplicate samples of CV-1 cells in 24-well plates were transiently transfected with the indicated GAL-DBD and VP16-AD plasmids along with the GAL4-regulated reporter, pFRLuc. The relative luciferase activity, normalized for the activity of the internal Renilla control, was determined and plotted as the average±S.D. The much lower activity of GAL/TIF2.4m123 was previously shown not to be due to unequal levels of protein expression (He et al., 2002). Similar results were obtained in three additional experiments. […] Triplicate samples of CV-1 cells in 24-well plates were analyzed as in (B&C) after being transiently transfected with GAL±6-6CL1 constructs and pFRLuc reporter along with VP16 chimeras of SRC-1 (FIG. 2D) or TIF2 (FIG. 2E) segments. Similar results for SRC-1 were obtained in two additional experiments (ND=not determined). […]

TIF2(1140C) = target: T2, TIF2(1140C); experiment: Mammalian two-hybrid assay in CV-1 cells with TIF2(1140C)
Text: as §1

[1] = test system: GR repression of an AP-1 induced gene; experiment: GR-mediated repression of PMA-induced AP-1/Luc reporter in U2OS.rGR cells; settings: 25 μM PMA, no Dex
Experimental: FIG. 5A-F illustrate STAMP modulation of GR-mediated repression. […] U2OS.rGR cells were transiently transfected with ±TIF2 (20 ng)±STAMP (100 ng) plasmids, AP-1/Luc reporter (20 ng), and Renilla control (10 ng) plasmid. The cells were induced with ethanol (EtOH) or 25 μM PMA±0.1 μM Dex. […] The average values±S.E.M. of four experiments are plotted. The numbers in parentheses above the bars labeled “PMA+Dex” represent the average fold repression caused by Dex± the various factors.
FIG. 5B illustrates that functional TIF2 is needed for optimal STAMP activity. U2OS.rGR cells were transiently transfected and processed as described for FIG. 5A but less STAMP (50 ng) was used and two concentrations of TIF2 or TIF2m123 (10 and 20 ng) were employed. The average values±S.E.M. of 4-5 experiments are plotted. An asterisk indicates a significant difference (P≦0.031) between samples containing equal amounts of TIF2 and TIF2m123.
Rogatsky et al. have reported that TIF2 augments GR repression of an AP-1 induced gene. […] The TIF2 domain identified as having TIF2 activity in GR repression was the same as used to isolate STAMP. In order to determine if STAMP was active in GR-mediated gene repression as well as induction, the ability of STAMP to increase the repressive activity of GR in the AP-1 responsive whole cell bioassay system was assessed using U2OS.rGR cells.

Molecule | interaction with C-terminal portion of SRC-1 (1139C) (SRC-1 (1139C)) | interaction with TIF2(1140C) (TIF2(1140C)) | fold induction by PMA [1]
B1 | strongly interacted | does not interact | 
B2 |  |  | unchanged
